From patent US20090280473A1

Key:
Assay in all cases: cell-based or functional assay
[1] = biological target: Semliki Forest virus E1 fusion protein, low pH-induced trimeric form (full-length viral E1 of cell-b (Semliki Forest virus) (UniProt P03315))
[2] = biological target: Dengue virus 1 (DV1, strain Western Pacific) E fusion protein (Dengue virus 1) (UniProt P17763)
[3] = biological target: Dengue virus 2 (DV2, strain New Guinea C) E fusion protein (Dengue virus 2) (UniProt P14340)

DIII (SFV E1 domain III, Met + residues 291-383) (from UniProt P03315 1106-1198)
percent inhibition of SFV fusion in the FIA at ˜80 µM [1]: 60 % inhibition

DIIIS (SFV E1 domain III plus stem, Met + residues 291-412) (from UniProt P03315 1106-1227)
inhibition of SFV fusion with BHK cells, fusion-infection assay (FIA) [1]: 6 µM

DV2DIIIH1 (dengue virus 2 E domain III plus helix 1 of the stem, residues 296-415) (from UniProt P14340 576-695)
percent inhibition of DV1 fusion in the FIA at 50 µM [2]: 70 % inhibition
percent inhibition of DV2 fusion in the FIA at 50 µM [3]: 70 % inhibition
